Test results reported in patent publication US20160160238.

Legend:
Experiment in all cases: cell_activity
[1] = tested on: TALEN ssNF1ex42.2 left (synthetic (Xanthomonas TALE-FokI)?); conditions: HDR by RFLP, pig fibroblasts, 3 days 30 C; pair with P4, 16 bp spacer
[2] = tested on: TALEN ssTP53 E6 right (synthetic (Xanthomonas TALE-FokI)?); conditions: Surveyor (Cel) assay, co-transfected with ssNF1 42.3; pair with P7, 16 bp spacer
[3] = tested on: TALEN ssNF1ex42.2 right (synthetic (Xanthomonas TALE-FokI)?); conditions: HDR by RFLP, pig fibroblasts, 3 days 30 C; pair with P3, 16 bp spacer
[4] = tested on: TALEN ssNF1ex42.3 right (synthetic (Xanthomonas TALE-FokI)?); conditions: HDR by RFLP, pig fibroblasts, 3 days 30 C; pair with P5, 16 bp spacer; 25.5% when co-transfected with ssTP53 E6
[5] = tested on: TALEN ssNF1ex42.3 left (synthetic (Xanthomonas TALE-FokI)?); conditions: HDR by RFLP, pig fibroblasts, 3 days 30 C; pair with P6, 16 bp spacer; 25.5% when co-transfected with ssTP53 E6
[6] = tested on: TALEN ssTP53 E6 left (synthetic (Xanthomonas TALE-FokI)?); conditions: Surveyor (Cel) assay, co-transfected with ssNF1 42.3; pair with P8, 16 bp spacer
[7] = tested on: TALEN ssNF1ex42.1 right (synthetic (Xanthomonas TALE-FokI)?); conditions: HDR by RFLP, pig fibroblasts, 3 days 30 C; pair with P1, 16 bp spacer
[8] = tested on: TALEN ssNF1ex42.1 left (synthetic (Xanthomonas TALE-FokI)?); conditions: HDR by RFLP, pig fibroblasts, 3 days 30 C; pair with P2, 16 bp spacer

AAGCACAATGATGATGC (double strand) [NF1 exon 42 site, 42.2 left half-site]
activity (% allele modification) [1]: 45.1

AAGTCAGAGTACATG (double strand) [TP53 exon 6 site, right half-site]
activity [2]: 11.8 % cutting

ACTGCGATCCTTGATA (double strand) [NF1 exon 42 site, 42.2 right half-site]
activity (% allele modification) [3]: 45.1

CCTTGATAAGCTGATA (double strand) [NF1 exon 42 site, 42.3 right half-site]
activity (% allele modification) [4]: 27.2

GATGATGCCAAACGAC (double strand) [NF1 exon 42 site, 42.3 left half-site]
activity (% allele modification) [5]: 27.2

GGCACCCGTGTCCGCGC (double strand) [TP53 exon 6 site, left half-site]
activity [6]: 11.8 % cutting

GTTACTGCGATCCTTG (double strand) [NF1 exon 42 site, 42.1 right half-site]
activity (% allele modification) [7]: 54.2

TGTAAGCACAATGATGA (double strand) [NF1 exon 42 site, 42.1 left half-site]
activity (% allele modification) [8]: 54.2
